{
  "source": "the nanobody polyreactivity screen of Harvey et al. (2022)",
  "data": [
    {"assay": "yeast display, Sf9 membrane polyspecificity reagent, FACS + sequencing; frameworks hold sequencing errors", "outline": "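A nanobody's polyreactivity label depends on the gate it was sorted from. Yeast display cells were stained with 10% biotinylated, detergent-solubilized Sf9 membrane reagent for 1 hour at 4 °C, enriched on streptavidin microbeads and sorted by FACS. The low and high (top ~1%) gates were set on anti-HA fluorescence for expression and streptavidin fluorescence for reagent binding.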", "values": [
      {"sequence": "QVQLVESGGGLVQAGGSLRLSCAASGSTFDANAMGWSRQAPRKERELVATISDGGSTNYADSVKGRFTISSDNAKNTVYLQMISVKPEDTAVYYCAAVKLFLGLGFEYWGQGTQVTVSS", "polyreactivity (PSR sort gate)": "low polyreactivity"},
      {"sequence": "QVQLVESGGGLVQAGGSLRLSCAASGSTFDANAMGWYRQAPGKERELVAAISRSGGNTYYPDSVKGRFTISRDNAKNTVYLELNSLKPEDTAVYYCAADFRNAYYDRLDYWGQGTQVTVSS", "polyreactivity (PSR sort gate)": "low polyreactivity"},
      {"sequence": "QVQLVESGGGLVQAGGSLRLSCAASGSTFDAYAMGWYRQAPGKERELVAAITWSGGSTYYADSVKGRFTISRDNAKNTVYLEMNSLKPEDTAVYYCAADKLGELDYWGQGTQVTVSS", "polyreactivity (PSR sort gate)": "low polyreactivity"},
      {"sequence": "QVQLVESGGGLVQAGGSLRLSCAASGSTFDDYAMGWYRQAPGKERELVAAISRSDGSTSYADSVKGRFTISRDNAKNTVYLQMNSLKPEDTAVYYCAADPVFKDDLWPVRVRVDYWGQGTQVTVSS", "polyreactivity (PSR sort gate)": "low polyreactivity"},
      {"sequence": "QVQLVESGGGLVQAGGSLRLSCAASGSTFDFYAMGWYRQAPGKERELVAAITSGGTTNYADSVKGRFTISRDNAKNTVYLQINSLKPEDTAVYYCNAYYLGWYRVRAVTGYYYWGQGTQVTVSS", "polyreactivity (PSR sort gate)": "low polyreactivity"},
      {"sequence": "QVQLVESGGGLVQAGGSLRLSCAASGSTFDFYPMGWYRQAPGKERELVAAIRIGGNPNYADSVKGRLTISRDNAKNTVYLQLNSLKPEDTAVYYCARDDTYDTPLSPYDYWGQGTQVTVSS", "polyreactivity (PSR sort gate)": "low polyreactivity"},
      {"sequence": "QVQLVESGGGLVQAGGSLRLSCAASGSTFDGNAMGWYRPAPGKVRELVAAITRAGRTSYADSVKGRFTISRDNAKNTVYLQMNSLKPEDTAVYYCAKGGYDYWGQGTQVTVSS", "polyreactivity (PSR sort gate)": "low polyreactivity"},
      {"sequence": "QVQLVESGGGLVQAGGSLRLSCAASGSTFDGNAMGWYRQAPGKERELVAAISYSGGRTYYADSVKGRFTISRDNAKNTVYLQMNSLKPEDTAVYYCATVRPKYSASSYLAYSIFRYGYWGQGTQVTVSS", "polyreactivity (PSR sort gate)": "high polyreactivity"},
      {"sequence": "QVQLVESGGGLVQAGGSLRLSCAASGSTFDGNVMGWYRQAPGKERELVADIDSGGSTNYADSVKGRFTISRDNAKNTVYLQMNSLKPEDTAVYYCKAEWDDSFIRWFRYRGNYWGQGTQVTVSS", "polyreactivity (PSR sort gate)": "low polyreactivity"},
      {"sequence": "QVQLVESGGGLVQAGGSLRLSCAASGSTFDHYAMGWYRQAPGKERELVAAITRSGGSTYYADSVKGRFTISRDNAKNTVYLQMNSLKPEDTAVYYCNARRWITSDYWGQGTQVTVSS", "polyreactivity (PSR sort gate)": "high polyreactivity"},
      {"sequence": "QVQLVESGGGLVQAGGSLRLSCAASGSTFDIYAMGWYRQAHGKERELVAVISGGEGSTYYADSVKGRFTISRDNAKNTVYLQMNSLKPEDTAVYYCAADYISPGYWDGEYDCWGQGTQVTVSS", "polyreactivity (PSR sort gate)": "low polyreactivity"},
      {"sequence": "QVQLVESGGGLVQAGGSLRLSCAASGSTFDIYAMGWYRQAPGKERELVAAIRGRGGSTYYADSVKGRFTISRDNAKNTVYFQMNSLKPEDTAVYYCAADSYATRYYYWGQGTQVTVSS", "polyreactivity (PSR sort gate)": "high polyreactivity"},
      {"sequence": "QVQLVESGGGLVQAGGSLRLSCAASGSTFDIYAMGWYRQAPGKEREMVAAIDFSGGSTYYADSVKGRFTISRDNAKNTVYLQMNSLKPEDTAVYYCAADVQKHFYSFGDERGFPFDYWGQATQVTVSS", "polyreactivity (PSR sort gate)": "low polyreactivity"},
      {"sequence": "QVQLVESGGGLVQAGGSLRLSCAASGSTFDKYAMGWYRQAPGKERELVATISQSGASTYYADSVKGRFTISRDNAKNTVYFQMNSLKPEDTAVYYCAAAGGEQTKDYYYWGQGTQVTVSS", "polyreactivity (PSR sort gate)": "high polyreactivity"},
      {"sequence": "QVQLVESGGGLVQAGGSLRLSCAASGSTFDKYVMGWYRQAPGKERELVAVIDWRDGTTYYADSVKGRFTISRDNAKNTVYLQMNSLKPEDTAVYYCNADNDNYGDVYPYYTAGYGYWGQGTQVTVSS", "polyreactivity (PSR sort gate)": "low polyreactivity"},
      {"sequence": "QVQLVESGGGLVQAGGSLRLSCAASGSTFDLNAMGWYRQAPGKERELVARITSSTGRTFYADSVKGRFTISRDNAKNTVYLQMNSLKPEDTAVYYCAKDHASYSYWPSVLPYDHWGQGTQVTVSS", "polyreactivity (PSR sort gate)": "low polyreactivity"},
      {"sequence": "QVQLVESGGGLVQAGGSLRLSCAASGSTFDNNAMGWYRQAPGKERELVAAISWGGGSTYYADSVKGRFTISRDNAKNTVYLQMNSLKPEDTAVYYCAKLKGTQPNRYDYWGQGTQVTVSS", "polyreactivity (PSR sort gate)": "low polyreactivity"},
      {"sequence": "QVQLVESGGGLVQAGGSLRLSCAASGSTFDNYAMGWYRQAPGKERELVATITSGGSITNYADSVKGRFTISRDNAKNTVYLQMYSLKPEDTAVYYCAKRRYFYYRGDYWGQGTQVTVSS", "polyreactivity (PSR sort gate)": "high polyreactivity"},
      {"sequence": "QVQLVESGGGLVQAGGSLRLSCAASGSTFDPNALGWYRQAPGKERELVAAISYTGGRTYYADSVKGRFTISRDNAKNTVYLQMNSLKPEDTAVYYCAVLVVGSTTQDEPYFSGVEHDYWGQGTQVTVSS", "polyreactivity (PSR sort gate)": "low polyreactivity"},
      {"sequence": "QVQLVESGGGLVQAGGSLRLSCAASGSTFDPNAMGWYRQAPGKERELVAAITSGGSTYYADSVKGRFTISRDNAKNTVYLQMNSLKPEDTAVYYCNAPLEWGVYAAQNWDDGYWGQGTQVTVSS", "polyreactivity (PSR sort gate)": "low polyreactivity"},
      {"sequence": "QVQLVESGGGLVQAGGSLRLSCAASGSTFDPNAMGWYRQARGKERELVAAISYTGGRTYYADSVKGRFTISRDNAKNTVYLQMNSLKPEDTAVYYCAVLVVGSTTQDEPYFSGVEHDYWGQGTQVTVSS", "polyreactivity (PSR sort gate)": "low polyreactivity"},
      {"sequence": "QVQLVESGGGLVQAGGSLRLSCAASGSTFDPYAMGWYRQAPGKEREFVAAISGSGGSTYYADSVKGRFTISRDNAKNTVYLQMNSLKPEDTAVYYCAKDSFPWVDDDYWGQGTQVTVSS", "polyreactivity (PSR sort gate)": "low polyreactivity"},
      {"sequence": "QVQLVESGGGLVQAGGSLRLSCAASGSTFDPYAMGWYRQAPGKEREFVADIDSSVGSTFYADSVKGRFTISRDNAKNTVYLQMNSLKPEDTAVYYCAAVYESYYYEYYYWGQGTQVTVSS", "polyreactivity (PSR sort gate)": "high polyreactivity"},
      {"sequence": "QVQLVESGGGLVQAGGSLRLSCAASGSTFDPYAMGWYRQAPGKERELVAAITSGGGTKYADSVKGRFTISRDNAKNTVYLQMNSLKPEDTAVYYCAADYFDSSYQPTDSILYEYWGQGTQVTVSS", "polyreactivity (PSR sort gate)": "low polyreactivity"},
      {"sequence": "QVQLVESGGGLVQAGGSLRLSCAASGSTFDPYGMGWYRQAPGKERELVAAITSSGRTNYADSVKGRFTISRDNAKNTVYLQMNSLKPEDTAVYYCATRKERYFYRGYEYWGQGTQVTVSS", "polyreactivity (PSR sort gate)": "low polyreactivity"},
      {"sequence": "QVQLVESGGGLVQAGGSLRLSCAASGSTFDQYALGRYRQAPGKERELVADITSSDGSTYYADSVKGRFTISRDIAKNTVYLQMNSLKPEDTAVYYCNADYRYIWTYWGWSIYDYWGQGTQVTVSS", "polyreactivity (PSR sort gate)": "high polyreactivity"},
      {"sequence": "QVQLVESGGGLVQAGGSLRLSCAASGSTFDRNAMGWYRKAPGKERELVAAISKRSGSTYYADSVKGRFTISRDNAKNTVYLQMNSLKPEDTAVYYCAADRISYRGMGSWGQGTQVTVSS", "polyreactivity (PSR sort gate)": "high polyreactivity"},
      {"sequence": "QVQLVESGGGLVQAGGSLRLSCAASGSTFDRYAMGWYRQAPGKERELVAAISHSGGRTYYADSVKGRFTISRDNAKNTVYLQMNSLKPEDTAVYYCAAKSRSGTEAAYGYWGQGTQVTVSS", "polyreactivity (PSR sort gate)": "low polyreactivity"},
      {"sequence": "QVQLVESGGGLVQAGGSLRLSCAASGSTFDRYAMGWYRQAPGKERELVAAISWSAGRTYYADSVKGRFTISRDNAKNTVYLQMNSLKPEDTAVNYCAADQIVSGTYDYYWGQGTQVTVAS", "polyreactivity (PSR sort gate)": "low polyreactivity"},
      {"sequence": "QVQLVESGGGLVQAGGSLRLSCAASGSTFDRYAMGWYRQAPRKERELVAANSWSAGRTDYADSVKGRFTISRDNAKNTVYLQMNSLKPEDTAVYYCAADYWYRTFYGYFGYDYWGQGTQVTVSS", "polyreactivity (PSR sort gate)": "low polyreactivity"},
      {"sequence": "QVQLVESGGGLVQAGGSLRLSCAASGSTFDSYAMGWYRQAPGKERELVAAITRSDASTYYADSVKGRFTISRDNAKNTVYLQMNSLKPEDTAVYYCDADTSLVYYGGDWEYYYWGQGTQVTVSS", "polyreactivity (PSR sort gate)": "low polyreactivity"},
      {"sequence": "QVQLVESGGGLVQAGGSLRLSCAASGSTFDSYGMGWYRQAPGKERELVASISSRGGSTYYADSVKGRFTLSRDNAKNTVYFQMNSLKPEDTAVYYCAAKGPRRWGSGFDYWGQGTQVTVSS", "polyreactivity (PSR sort gate)": "low polyreactivity"},
      {"sequence": "QVQLVESGGGLVQAGGSLRLSCAASGSTFDSYGMGWYRQAPGKERELVGSISSRGGSTYYADSVKGRFTISRDNAKNTVYLQMNSLKPEDTAVYYCAAEWLSWFHGYGMYYWGQGTQVTVSS", "polyreactivity (PSR sort gate)": "low polyreactivity"},
      {"sequence": "QVQLVESGGGLVQAGGSLRLSCAASGSTFDTYAMGWYRPAPRKERELLAAISRSGTSTYYADSVKGRFTISRDNAKNTVYLQMNSLKPEESAVYYCAAYGPRVNGEIGREYYYWGQGTQVTVSS", "polyreactivity (PSR sort gate)": "low polyreactivity"},
      {"sequence": "QVQLVESGGGLVQAGGSLRLSCAASGSTFDVNAMGWYRQAPGKERELVADITSGGSTNYADSVKGRFTISRDNAKNTVYLQMNSLKREDTAVYYCARDDWFGFIRVQEMDYWGQGTQVTVSS", "polyreactivity (PSR sort gate)": "low polyreactivity"},
      {"sequence": "QVQLVESGGGLVQAGGSLRLSCAASGSTFDVNAMGWYRQAPGKERELVAVITSGGSTNYADSVKGRFTISRDNAKNTVYLQMNSLKPEDTAVYYCAKDSRTLYDYWGQGTQVTVSS", "polyreactivity (PSR sort gate)": "low polyreactivity"},
      {"sequence": "QVQLVESGGGLVQAGGSLRLSCAASGSTFDVYAMGWYRQAPGKERELVAAISFSSGSTYYADSVKGRFTISRDNAKNTVYLQMNSLKPEDTAVYYCAARTYRYPYWGYDYWGQGTQVTVSS", "polyreactivity (PSR sort gate)": "high polyreactivity"},
      {"sequence": "QVQLVESGGGLVQAGGSLRLSCAASGSTFDVYAMGWYRQAPGKERELVAAISLGTGITYYADSVKGRFTISRDNAKNTVYFQMNSLKPEDTAVYYCAVAIETGYGAYDGYIYYYWGQGTQVTVSS", "polyreactivity (PSR sort gate)": "high polyreactivity"},
      {"sequence": "QVQLVESGGGLVQAGGSLRLSCAASGSTFDVYAMGWYRQAPGKERELVATISWIGGSTYYADSVKGRFTISRDYAKKTVYLQMNSLKPEDTAVYYCAAESSPLEYDYWGQGTQVTVSS", "polyreactivity (PSR sort gate)": "low polyreactivity"},
      {"sequence": "QVQLVESGGGLVQAGGSLRLSCAASGSTFDVYAMGWYRQATGKERELVAVINTSGTRTYYADSVKGRFTISRDNSKNTVYLQMISLKPEDTAVYYCNAGGHLEMNYWGEGTQVTVSS", "polyreactivity (PSR sort gate)": "low polyreactivity"},
      {"sequence": "QVQLVESGGGLVQAGGSLRLSCAASGSTFDVYARGGYRQAPGKERELVAAITSGGTTNYADSVKGRFTLSRDNAKNTVYLQMNSLKPEDTAVYYCAKDSRNVYWDYGYWGQGTQVTVSS", "polyreactivity (PSR sort gate)": "low polyreactivity"},
      {"sequence": "QVQLVESGGGLVQAGGSLRLSCAASGSTFDWYAMGWYRQAPGKERELVAAISSDDSTYYADSVKGRFTISRDNAKNTVYLQMNSLKPEDTAVYYCAVDVYSDYGDYGYWGQGTQVTVSS", "polyreactivity (PSR sort gate)": "low polyreactivity"},
      {"sequence": "QVQLVESGGGLVQAGGSLRLSCAASGSTFDWYAMGWYRQAPGKERELVAAITSGGSTYYADSVKGRFTISRDNAKNTVYLQMNSLKPEDTAVYYCAAESRQVRYILYYYWGQGTQVTVSS", "polyreactivity (PSR sort gate)": "low polyreactivity"}
    ]}
  ]
}
